The nature of this data set: soluble on expression in E. coli; label from the status in PepcDB or PDB records.
On to “MPEEYIMSSKACIYVLGGAANTAALFDFDGVYILDGGFAEKNPGFVAHVRDVSAVLLAAPTLGNLGTTSALLEQGKPLPVFTNTKPFKTAKPGSSGEIAKAIQEANSKILSVAPPLFNPKYPANIIYQSAAKGVLSLYILAGDVKDAEVITKALAGGNEAEVEKAAAEHGTIGVLLWRPAMTDQSVVRVLISGTSSLSRIQQSLDKAAKSLPFLNVPTVKSKDALSDIPAPAVPRPVAGKPSARPATTTGTATRPTRPAVPAASAPRALTSRAPAGPSRPTTTRNAAPAPRTAVPSRATVLTKTAPASKAPTRAPVPARSAPAPPRGAPAKPAANTAKAEPIAQKKTVGKVQGTAPSKPAPAAPASAATSPAPAPEAPRRDPNNVTIVLDDSLSPEDFNQGSAPMDIVVIPPTPEPPRHEVAQATHPEESIIDAEDLAKAPLEVDDVANLADVEDEIPPPVDAFKKPEPHPEPNVSGGSEEDKIPEPVDAFKKPDPVELDDFDPLKPSHPEPSAPVVPSDHIIIATPDPELPDIVAAVPFVSPSPKGPNDGLVKLDDELEKIAPGFEEPLIPQAPRDDGTLAECSEEVSKLVEISMDTDNSAEVAADLAKAVGEVTQLSADLQNLGLDEKTDEYVRKLSNQMIEDATLPFTSALASSIVTSNGSETNGHGEQAHAAQNGGIDHQKEIPKHDLMQSRSSVIENGAAVQYEKTDPALDDVLNACAQESEKIDASHPDNLHMPAAPGSAAPAKPVKFARPYYFDVVTVPRNEKLETSVAADGLQEFISKVRSRNVILASKDISGEQLQAILCGKQTWCDSAHPCNVIPTHSSPMLLDFRQKNEEQFAANNLQFSIPVEKQRTTVSSDAGAIEYELARVDLL”, for which the “soluble on expression in E. coli” value is listed as “soluble”. Consider “MPESIPQFYKRIQSCDLQSDTTYSKEKPYFNIFSRQCNFGTVQFSYREFYKVTLIIGVGKLYYADKWILVNRPALLFSNPLVPYAWESISEEQKGVFCIFNERFVQSEEKNGSLANTPLFKVTGDKVFFLDDTQVAKVLDIYTQMQEENQSDYVNKFDVLRCYLHLLIHTALKMQDSNRYESHLNASQRITELFIELLDRQFPIDYPHAVLNLRTPADYANRLSVHVNHLNKVIKDTTGKTTSEMIAERIIKECTQYLLHSNLSISEIAYSLGFETVSYFSKFYRKHTGKSPSEVRERTII”, for which the “soluble on expression in E. coli” value was “not soluble”. “MPESYWEKVSGKNIPSSLDLYPIIHNYLQEDDEILDIGCGSGKISLELASLGYSVTGIDINSEAIRLAETAARSPGLNQKTGGKAEFKVENASSLSFHDSSFDFAVMQAFLTSVPDPKERSRIIKEVFRVLKPGAYLYLVEFGQNWHLKLYRKRYLHDFPITKEEGSFLARDPETGETEFIAHHFTEKELVFLLTDCRFEIDYFRVKELETRTGNKILGFVIIAQKLLEHHHHHH”: the “soluble on expression in E. coli” value is “soluble”. For the sequence “MPEVSVEKPLSVIPPEFCANANCPFSPKEISVLRIKVRGGVSKEEILQVNSASRPALPRQHSASTVSPLQSSSDELNNDSGIDNRTVGSPSTSEFSPRSTDLFVSPKSIIDEEPPHHPPPPPPVEEKLDQVLIPLKLSRGQDYAPIYRSLEQDTYYDQSPSESEKDEDLGLTNTKRYTENFRSVEKNQYMPVMSARVEATFKQPPPREGVKPFVSRAAQDITHNGESKVENIDLTIELNREQKATVTATKYPRTDFIMEDYHRPQTQILAPAPKKPNSTTRIYHAVDIPFDESPASYYPKQNNGYQRQRRYSASSASKQDGMFTLNVIMGSQPVHKGMGFSTVKRDERVIVESVIVGSPADKAGLLVGDTILSINGEEMSDKYQSGVTRILHEAARVGEADVLILRAPVPAPMLSKQMSTSSSNSSNYDKARSVFTENKSFDSYAEFKRKHTRTSRDSNSSNATRSSRDFNSLPRGTTAQSSLDRKRDTSLSSYRTAKDNFNSSSNRSSGRSEYGDYRVSNYQEKNAPGRLTDFVPEVDRRLSRREQSEEIYSRSQRDEEPRTIRNYHLSNENIARTNLNYDGRRDSEEESTTTTLKRTTLPRSGTAQWKNEYSDGEEVTEKLPVTSRDSSPLRSALKKSSHNYYHQSSDPVAPPPRRYYSTESLQLPKTSSYQRYSEEEDEEIEETYSSMRRHRQEIPRHVDEFHTVGSYGVMPQRSRSQQPARLPRYDSVPDDVDEVSGVSHRFYDRSGNHVRAPRERIHDIQIQRDYGDRAPSRDLDFVRNTYKWEEQLEDTKVTTTTKIYEKESRDWRDVINQQRQAAPGNSADRRGIAATSSSLSNLPSYINRRMEKEREREIEYRRDREYSMPPADPPVITEKYERDEYSRVEERTYPVPVARNKMRREETQMQSSLQQMHSQSSQKDDSVVAVSGKHRCAHCNEELGRGAAMIVESLNLFYHLACFKCYVCKTSLGSGATGADVRVRDGRLHCQTCYSNDRVQLSKV”, the “soluble on expression in E. coli” value was “not soluble”.

(Values after the DeepSol protein solubility set.)
